Measurements as given in article PMC3072266.

Target: 3AB wild type (poliovirus type 1 (Mahoney), UniProt P03300 1457-1565)
Experiment: EMSA

Chain of 3AB wild type (P03300 1457-1565): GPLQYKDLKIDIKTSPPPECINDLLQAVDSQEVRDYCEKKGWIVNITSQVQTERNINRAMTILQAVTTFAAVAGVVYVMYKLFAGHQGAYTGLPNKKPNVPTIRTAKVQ

GAGUGCACCAUAUGCCAUUCAGGCUACGCAACUGUUGGGA (ssRNA) [40-mer RNA]: binds.
